# Source: patent US20100086958A1, “NOVEL ENZYME” (priority 2008, published 2010)
# How the values were obtained:
# Format in all cases: biochemical
# [1] = Assay of enzyme activity (specific activity, U/mg); conditions: unit = μmol formate oxidized per min in the presence of co-factor; This work
# Method: The reaction was initiated by addition of NAD^+. The total volume of the reaction mixture was 1 mL. Specific activity (U/mg enzyme) was defined as number of μmols of product formed per mg enzyme per minute.
# [2] = Ketoreductase (KRED101)/BspFDH2 coupled reduction of ethyl 4-chloro-3-oxobutanoate
# Method: NADP^+ (10 mM, 1 mL) and BspFDH2 (17 mg/mL, 500 μL) were then added and the reaction shaken for 30 minutes at room temperature. After 30 minutes, KRED101 (40 mg/mL, 300 μL) was added. The reaction was monitored by GC-MS (Rt˜3.1 minutes). After 15 hr, the reaction mixture was extracted by DCM (3×1 mL) and combined organic phases were dried and the solvent removed to afford ethyl 4-chloro-3-hydroxybutanoate (6 above, >99% conversion based on GC chromatogram and HPLC). The GC-MS data were collected as example 1a. Chiral HPLC was performed on a Chiralcel OB packed column (0.46 cm I.D.×25 cm L; Daicel Chemical Industries, Japan) at 217 nm, with an eluent of n-hexane/2-propanol (9.3:0.7, v/v) at a flow rate of 1 mL/min. IR, vmax (thin film), 3600-3100 (br, O—H), 1731 (s, C═O) cm^−1. ^1H-NMR (400 MHz, Chloroform-d): δ ppm 1.29 (t, J=7.07 Hz, 3H), 2.55-2.70 (m, 2H), 3.62 (dd, J=5.31, 2.78 Hz, 2H) 4.19 (q, J=7.07 Hz, 2H), 4.23-4.30 (m, 1H). ^13C-NMR (400 MHz, Chloroform-d): δ ppm 14.11, 38.41, 48.11, 61.01, 67.92, 171.78. GC-MS (CI^+): m/z Calcd for C6H12O3Cl [M+H]+=167, C6H15O3Cl [M+NH4]^+=184; Found: 167 (M+H)^+, 184 (M+NH4)^+. HPLC-UV/Vis: (tR=7.9 minutes, tS=9.4 minutes), >99% e.e. of S.
# D-(S)-4-chloro-3-hydroxybutanoate ethyl ester is a key chiral pharmaceutical intermediate used in the enantioselective synthesis of, for example, slagenin B and C and HMG-CoA reductase inhibitors. […]
# [3] = Cytochrome P450 BM3/BspFDH2 coupled oxidation of 1-propylbenzene with NADPH regeneration
# Method: (Li, Q.-S. et al., FEBS Letters 508, 249-252 (2001)) In this oxygen C—H reaction (FIG. 4a), one oxygen atom from an atmospheric O2 molecule is reduced to water by NADPH leaving the other ready for delivery to substrate. All P450's are NADPH-dependent. NADP^+ thus formed is then regenerated to NADPH by the action of BspFDH2 using formate. The overall atomic transformation is therefore the splitting of O2- with a hydride ion from formate using NADP^+ as a hydride shuttle.
# 200 μL of 1-propylbenzene (1a above, 1M in DMSO), sodium formate (3 M, 2 mL) and bovine serum albumin (100 mg/mL, 1 mL) were added in potassium phosphate buffer (100 mM, pH 7.6, 2 mL) and the reaction mixture was shaken for 3 min. NADP^+ (10 mM, 1 mL) and BspFDH2 (17 mg/mL, 500 μL) were added and the reaction shaken for 30 minutes at room temperature. After 30 minutes, wild type cytochrome P450-BM3 (WT P450 BM3, 2.4 mg/mL, 300 μL) was added and the reaction shaken at room temperature. The reaction was monitored by GC-MS (Rt˜3.2 minutes). After 15 hr, the reaction mixture was extracted by DCM (3×1 mL) and the combined organic phase was dried and the solvent removed to afford 1-phenylpropan-1-ol (2a above, >99% conversion based on GC chromatogram). […]
molecule,measurement,setting,value
"Bsp383FDH: wild type FDH from Burkholderia sp 383, Seq ID No: 1, C-terminal His-tagged (protein, listed as Burkholderia sp., C-terminal His tag) MATVLCVLYPDPVDGYPPRYVRDAIPVITHYADGQTAPTPAGPPGFQPGELVGCVSGALGLRGYMEAHGHTLIVTSDKDSPDSEFERRLPEADVVISQPFWPAYLTAERIARAPKLKLALTAGIGSDHVDLDAAARARITVAEVTGSNSISVAEHVVMTTLALVRNYLPSHAIAQQGGWNIADCVSRSYDVEGMHFGTVGAGRIGLAVLRRLKPFGLQLHYTQRHRLDASIEQELGLTYHADAASLASAVDIVNLQIPLYPSTEHLFDAAMIARMKRGAYLINTARAKLVDRDAVVNALTSGHLAGYGGDVWFPQPAPADHPWRTMPFNGMTPHISGTSLSAQARYAAGTLEILQCWFDGKPIRNEYLIVDGGTLAGTGAQSYRLT",activity with NADP^+,[1],8.64 U/mg
same,activity with NAD^+,[1],1.09 U/mg
same,reaction complete within,[2]; coupled with KRED101,≤ 30 min
same,conversion of ethyl 4-chloro-3-oxobutanoate to ethyl 4-chloro-3-hydroxybutanoate,"[2]; coupled with KRED101, NADPH regeneration, GC and HPLC",> 99%
same,reaction complete within,[3]; coupled with cytochrome P450 BM-3,≤ 2 h
same,conversion of propylbenzene to 1-phenyl-1-propanol,"[3]; coupled with cytochrome P450 BM-3, NADPH regeneration from formate, GC",> 99%
